Data: patent US10350158B2, “2′ fluoro-modified RNAs as immunostimulators” (DUKE UNIVERSITY, priority 2013, dated 2019)
Strand notation (5' to 3'): a small letter for the sugar, then the base; units joined by * are phosphorothioate-linked, units joined directly phosphodiester-linked; [ ] holds rarer units or linkages, { } end groups; capitals alone tell only the bases. {ppp} = triphosphate; r = 2'-OH (RNA); f = 2'-fluoro

Tests used:
[1] = tested on: WM266-4 cells; assay: Apoptosis / cell death by Annexin V-PE and 7-AAD flow cytometry; assay type: cell-based, human; conditions: aptamer treated with bacterial alkaline phosphatase (BAP), 0.125 μg/ml
Procedure: For the intracellular delivery of immune stimulatory RNAs, RNAs were transfected with the DharmaFECT® Duo liposomal transfection reagent (Thermo Scientific, Waltham, Mass.) at a transfection reagent (μl):RNA (μg) ratio of 3.75:1, according to the manufacturer's instructions. Unless otherwise stated, for the induction of innate immune responses and apoptosis, immune stimulatory RNAs (500 ng/ml) were transfected into 50 to 70% confluent cells. Cells were incubated with an RNA-transfection agent complex for 5 h, followed by replenishment with fresh culture medium. […]
Growth inhibition relative to untreated cells was quantified at 72 h after RNA transfection using an MTT Cell Proliferation Assay Kit (Cayman Chemicals, Ann Arbor, Mich.), according to the manufacturer's instructions. The percent growth inhibition was calculated by using the following equation: % growth inhibition=([O.D.]untreated−[O.D.]treated)/[O.D.]untreated×100. The induction of cell death was measured 48 h after RNA transfection by flow cytometry after staining with Annexin V-PE and 7-Aminoactinomycin D (7-AAD) using the PE Annexin V Apoptosis Detection Kit I (BD Biosciences, San Jose, Calif.) and analyzed using the CellQuest software (BD Biosciences).

[2] = biological target: T1, Human TLR7 (Homo sapiens, UniProt Q9NYK1); assay: IL-8 production by human TLR7-expressing HEK293 cells; assay type: cell-based
T1 construct: expressed in transfected cells; host or cells: HEK293 (HEK-TLR7), gift of Dr. Todd Brennan, Duke University
T1 sequence (Q9NYK1 27-1049): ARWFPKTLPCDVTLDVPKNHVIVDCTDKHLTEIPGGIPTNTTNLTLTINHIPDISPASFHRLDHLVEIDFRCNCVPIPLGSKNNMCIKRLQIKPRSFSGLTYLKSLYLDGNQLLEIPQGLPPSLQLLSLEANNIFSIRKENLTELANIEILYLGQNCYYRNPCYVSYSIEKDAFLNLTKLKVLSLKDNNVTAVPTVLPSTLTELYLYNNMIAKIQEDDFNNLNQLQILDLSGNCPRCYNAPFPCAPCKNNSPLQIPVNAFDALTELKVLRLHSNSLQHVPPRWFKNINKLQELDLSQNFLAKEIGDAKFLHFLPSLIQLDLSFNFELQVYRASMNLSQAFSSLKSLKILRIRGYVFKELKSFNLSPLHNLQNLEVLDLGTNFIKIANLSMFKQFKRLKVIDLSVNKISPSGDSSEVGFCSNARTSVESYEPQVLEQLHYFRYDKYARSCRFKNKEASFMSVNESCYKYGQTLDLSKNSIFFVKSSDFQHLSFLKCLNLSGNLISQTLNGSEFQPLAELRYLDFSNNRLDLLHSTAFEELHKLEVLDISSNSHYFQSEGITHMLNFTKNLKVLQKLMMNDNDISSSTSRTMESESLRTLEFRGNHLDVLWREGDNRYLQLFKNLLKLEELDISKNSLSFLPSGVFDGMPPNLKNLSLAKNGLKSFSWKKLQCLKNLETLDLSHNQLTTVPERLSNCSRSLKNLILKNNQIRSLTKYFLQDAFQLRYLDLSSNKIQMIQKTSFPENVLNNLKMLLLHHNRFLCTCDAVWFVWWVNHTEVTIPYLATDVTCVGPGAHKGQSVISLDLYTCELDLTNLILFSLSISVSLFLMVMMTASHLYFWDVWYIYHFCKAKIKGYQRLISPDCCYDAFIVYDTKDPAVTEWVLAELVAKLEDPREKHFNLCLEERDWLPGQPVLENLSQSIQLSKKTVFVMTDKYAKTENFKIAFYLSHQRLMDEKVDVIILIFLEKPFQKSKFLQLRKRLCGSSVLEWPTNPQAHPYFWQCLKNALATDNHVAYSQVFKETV
Procedure: The human TLR3 reporter cell, HEK-hTLR3-NFκB/SEAP was purchased from Invivogen. These cells were stably co-transfected with the human TLR3 gene and an inducible SEAP (secreted embryonic alkaline phosphatase) reporter gene into HEK293 cells. The SEAP gene is placed under the control of NF-κB and AP-1. […] SEAP gene expression was measured using the SEAP detection media QUANTI-BLUE (Invivogen), according to the manufacturer's instructions. FIG. 3B is a graph showing that TLR7 is not stimulated by the ssRNAs. Human TLR7-expressing HEK293 cells were kindly provided by Dr. Todd Brennan (Duke University, Durham, N.C.). Treatment with R848 but not with polyI:C, polyI:C-DF and 5′ppp 2′F 10F-DF complexes stimulated HEK-TLR7 cells to produce the inflammatory cytokine IL-8. The data represent the mean of two experiments. Error bars represent the S.D.

B1: 10F: 5′ppp 2′F pyrimidine ssRNA aptamer, 71 nt, human melanocytic cell-targeting, SEQ ID NO: 4 (nucleic acid)
chain: {ppp}-rGrGrGrArGrGrAfCrGrAfUrGfCrGrGfUrAfCfCfUrGrAfCrArGfCrAfUfCfUfUrGrAfUrArAfUrGrGfUfCfCfUrAfCrGrGrArGfCfCrGfUfUfCfCrArGrAfCrGrAfCfUfCrGfCfCfCrGrA
apoptosis after dephosphorylation of the aptamer [1]: partially prevented
stimulation of HEK-TLR7 cells to produce IL-8 [2]: not
